Reference: patent US6475806

Target: antibody to hCG
Assay: competition: unlabelled hCG displacing hCG-I^125 from the antibody to hCG

IC50: 10 nM
Substance: hCG (from UniProt P01215 25-116; P0DN86 21-165) (ligand)
